Test: yeast display, Sf9 membrane polyspecificity reagent, FACS + sequencing; frameworks hold sequencing errors
In short: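 Galactose-induced (36–48 hours) yeast carrying a synthetic nanobody display library were exposed to 10% biotinylated, detergent-solubilized Sf9 membrane reagent at 4 °C for 1 hour. FACS followed streptavidin microbead enrichment, using low and high (top ~1%) gates for expression (anti-HA) and reagent binding (streptavidin). Colony PCR, MiSeq 2 × 250 sequencing and CDR-length filtering followed. Labels for polyreactivity reflect the gate of origin.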

Row | Sequence | polyreactivity (PSR sort gate)
1 | QVQLVESGGGLVQAGGSLRLSCAASGFTFYVYAMGWYRQAPGKERELVASISRGGSTYYADSVKGRFTISRDNAKNTVYLQINSLKPEDTAVYYCNRVPYVSSSKVRYSNGFDYWGQGTQVTVSS | low polyreactivity
2 | QVQLVESGGGLVQAGGSLRLSCAASGFTFYYYAKGWYRQAPGKERELVAAINKKGGSTYADSVKGRFTISRDNAKNSVYLQLNSLKPEDTAVYYCYAVLTYTGVGYESWGQGTQVTVSS | high polyreactivity
3 | QVQLVESGGGLVQAGGSLRLSCAASGFTFYYYAMGWYRQAPGKERELVAAISRSGGSTYYADSVKGRFTISRDNAKNTVYLQMNSLKPEDTAVDYCNKGSRWLRGLDSWGQGTQVTVSS | high polyreactivity
4 | QVQLVESGGGLVQAGGSLRLSCAASGFTFYYYAMGWYRQAPGKERELVAAISWSSGRTYYADSVKGRFTISRDNAKNTVYLQMNSLKPEDTAVYYCAADGYAGSWWYDYWGQCTQVTVSS | high polyreactivity
5 | QVQLVESGGGLVQAGGSLRLSCAASGFTFYYYAMGWYRQAPGKEREMVAAISGGGGSTYYADSVKGRFTISRDNAKNTVYLQMNSLKPEDTAVFYCAAEYRGYPEDEYWGQGTQVTVSS | high polyreactivity
6 | QVQLVESGGGLVQAGGSLRLSCAASGFTFYYYAMGWYRQATGKERELVAAISSTGGSTYYADSVKGRFTISRDNAKNTVYLQMNSVKQEDSAVYYCNAAGYRYPGDYDYWGQGTQVTVSS | high polyreactivity
7 | QVQLVESGGGLVQAGGSLRLSCAASGFTFYYYTMGWYRQAPGKEREFVAAITSSGGRTNYADSVKGRFTISRDNAKNIVYLQMNRLKPEDTAVYYCAATYIRYDHYRPRGGYWGQGTQVTVSS | high polyreactivity
8 | QVQLVESGGGLVQAGGSLRLSCAASGFTFYYYTMGWYRQAPGKQRELVAAITWRGGSTNYADSVKGRFTISRDNAKNTVFLQMNSLKPEDTAVYYCAAVSYWFWPGMDYWGQGTQVTVSS | low polyreactivity
9 | QVQLVESGGGLVQAGGSLRLSCAASGFTFYYYVMGWYRQAPGKERELVAAITNGGSTYYADSVKGRFTISRDNAKNTVYLQMISLKPEDTAVYYCATRQSHWSGEFDYWGQGTQVTVSS | high polyreactivity
10 | QVQLVESGGGLVQAGGSLRLSCAASGFTIDAYAMGWDRQAPGKERELVAAISGSGGSTYYADSVKGRFTISRDNAKNTVYLQMNSLKPEDTAVYYCATDPGPYDYDYWGQGTQVTVSS | low polyreactivity
11 | QVQLVESGGGLVQAGGSLRLSCAASGFTIDDNAMGWSRQPPGKERELVAAISWSGGSTYYADSVKGRFTISRDNAKNTVYLQMNSLKPEDTAVYYCAIDVSQPKFDYWGQGTQVTVSS | low polyreactivity
12 | QVQLVESGGGLVQAGGSLRLSCAASGFTIDGYAMGWYRQAPGKERELVAAIRRGGRTKYADSVKGRFTISRDNAKNTVYLQLNSLKPEDTAVYYCNAVTRGYYHEMEYWGQGTQVTVSS | high polyreactivity
13 | QVQLVESGGGLVQAGGSLRLSCAASGFTIDYYTMGWYRQAPGKERELVAAISWSGGSTYYADSVKGRFTISRDNAKNTVYLQMNSLKPEDTAVYYCAAAWSYRYELYYWGQGTQVTVSS | low polyreactivity
14 | QVQLVESGGGLVQAGGSLRLSCAASGFTIERNAMGWYRQAPGKERELVATISQSGTNTYYADSVKGRFTISRDNAKNTVYLQMNSLKPEETAVYYCNARDIFYRYDYWGQGTLVTVSS | low polyreactivity
15 | QVQLVESGGGLVQAGGSLRLSCAASGFTIGNYAMGWYRQAPGKERELVAAISSSGTSTYYADSVKGRFTISRDIAKNTVYLQMNSLKPEDTAVYYCAAEYIINYTIFEYWGQGTQLTVSS | high polyreactivity
16 | QVQLVESGGGLVQAGGSLRLSCAASGFTIGPNAMGWYRQPPGKERELVAAISQSGGSTYADSVKGRFTISRDNAKNTVYLQMNSLKPEDTAVYYCAAQRARVNRYGGKFGYWGQGTQVTVSS | high polyreactivity
17 | QVQLVESGGGLVQAGGSLRLSCAASGFTIGYNVMGWYREAAGKERELVATISWNGARTYYADSVKGRFTISRDNAKNTVYLQMNSLKPEDTAVYYCAARRYYRGEYDYWGQGTQVTVSS | low polyreactivity
18 | QVQLVESGGGLVQAGGSLRLSCAASGFTIKWYTMGWYRPAPGKERELVAGISRRGGSTYYADSVKGRFTISRDNAKNTVYLEMNSLKPEDTAVYYCNVYSRTHYQTYTDDYWGQCTQVTVSS | high polyreactivity
19 | QVQLVESGGGLVQAGGSLRLSCAASGFTINFYAMGWYRKAPGKERELVAAITASGGGSTYYADSVKGRFTISRDNAKNTVYLQMNSLKPEDTAVYYCNADYPGSFYTYDYWGQGTQVTVSS | low polyreactivity
20 | QVQLVESGGGLVQAGGSLRLSCAASGFTINFYAMGWYRQAPGKERELVAAITASGGGSTYYADSVKGRFTISRDNAKNTVYLQMNSLKPEDTAVYYCNADYTGSFYTYDYWGQGTQVTVSS | low polyreactivity
21 | QVQLVESGGGLVQAGGSLRLSCAASGFTIPVYAMGWYRQAPGKEMELVADITESGDSTYYADSVKGRFTISRDNAKNTVYLQMNSLKPEDTAVYYCAADGGWFWSLFYTFAFDYCGQGTQVTVSS | low polyreactivity
22 | QVQLVESGGGLVQAGGSLRLSCAASGFTIRNNAMGWYRQAPGKERELVAAISYSGGSTYYADSVKGRFTISRDNAKNTVYLQMNSLKPEDTAVYYCNRRRWSYLEYDYWGQGTQVTVSS | low polyreactivity

Row | Sequence | polyreactivity (PSR sort gate)
23 | QVQLVESGGGLVQAGGSLRLSCAASGFTISANTMGCYSQAPGKERELGATISGGSSTNYADSVKGRFTISRDNAKNTVYLQMNSLKPDDTAVYYCAKDGGLRKFDYWGQGTQVTVSS | high polyreactivity
24 | QVQLVESGGGLVQAGGSLRLSCAASGFTISLNTMGWYRQAPGKERELVAAINSGDSTYADSVKGRFTISRDNAKNTGYFQMNSLKPEDTAVYYCNADPDWWYPYFYWGQGTQVTVSS | low polyreactivity
25 | QVQLVESGGGLVQAGGSLRLSCAASGFTISRYAMGWYRQAPGKERELVASITYSGTRTYYADSVKGRFTISRDNAKNTVYLQMNSLKPEDTAVYYCAADDEYKQEAEMDSWGQGTQVTVSS | low polyreactivity
26 | QVQLVESGGGLVQAGGSLRLSCAASGFTISYYAMGWYRQAPWKEGELVAAIRKSGATTDYADSVKGRFTISRDNAKNTVYLQMNCMKPEDTAVYYCNAKNDQRSLGFDFWRQGTQVTVSS | high polyreactivity
27 | QVQLVESGGGLVQAGGSLRLSCAASGFTITHYAMGWYRQAPGKERELVAAISTSGGSTYYADSVKGRFTISRDNAKNTVYLQMNSLKPEDTAVYYCAARRDGWVQWGYYYWGQGTQVTVSS | low polyreactivity
28 | QVQLVESGGGLVQAGGSLRLSCAASGFTITRYARGWYRQAPGKERELVAVITYSGDTYYADSVKGRFTISRDNAKNTVYLQMNSLKPEDTAVYYCAVERAYYSDTGRYGYDYWGQGTQVTVSS | high polyreactivity
29 | QVQLVESGGGLVQAGGSLRLSCAASGFTITTYAMGWYRQAPGKERELVAVISVSGGRTYYADSVKGRFTISRDNAKNTVYLQMNSLKPEDTAVYYCAAEYYPGWEYGYWGQGTQVTVSS | high polyreactivity
30 | QVQLVESGGGLVQAGGSLRLSCAASGFTIWPYAMGWYRQAPGKERELVAGITRNGGSTYYADSVKGRFTISRDIAKNTVYLQMNSLKPEDTAVYYCNTKYAVEFDYWGQGTQVTVSS | low polyreactivity
31 | QVQLVESGGGLVQAGGSLRLSCAASGFTIWYTMGSYRQAPGKEREFLAAITSGGGSTYYAESVKGRFTISRDNAKNTVYFQMNSLKPEDTAVYYCAARERSYRAYGYWRQGTQVTVSS | high polyreactivity
32 | QVQLVESGGGLVQAGGSLRLSCAASGFTIYNNAMGWYRQAPGKERELVAGITSGGDSTNYADSVKGRFTISRDNAKNTVYLQMNRLKPEDTAVYYCAAEGGTNTPGVVESDYWGQGTQVTVSS | low polyreactivity
33 | QVQLVESGGGLVQAGGSLRLSCAASGFTIYRYAMGWYRQAPGKERELVAAISSIGGSTYYADSVKGRFTISRDNSKNTVYLQMNSLKPEDTAVYYCAAAISLYSYDYWGQGTQVTVSS | low polyreactivity
34 | QVQLVESGGGLVQAGGSLRLSCAASGFTIYSYAMGWYRQAPGKERELVAAISSGGSTYYADSVKGRFTISRDNAKNTVYLQMNSLKPEDTAVYYCARRYQVVWYYKYDYWGQGTQVTVSS | high polyreactivity
35 | QVQLVESGGGLVQAGGSLRLSCAASGFTKFYNAMGWYRQAPGKERELVAAITARGGGTYYADSVKGRFTFSRDNAKNTVYLLMNSLKPEDTAVYYCAKQPIIYWQSSRFDYWGQGTQVTVSS | low polyreactivity
36 | QVQLVESGGGLVQAGGSLRLSCAASGFTLADNPMGWYRQAPGKERELVAAITSGASTYYADSVKGRFTISRDNAKNTVYLQMNTLKPEDTAVYYCAALYYWRSGYDAWGQGTQVTVSS | low polyreactivity
37 | QVQLVESGGGLVQAGGSLRLSCAASGFTLAFYGMGWYRQAPGKERELVAAISRSGGSTYYADSVKGRFTISRDNAKNTVYLQMNSLKPEDTAVYYCAAAFRAGAVYGYYWGQGTQVTVSS | high polyreactivity
38 | QVQLVESGGGLVQAGGSLRLSCAASGFTLDVNAIGWYRQAPGKERELVATISWGGASTYYADSVKGRFTISRDNAKNTVYLQMNSLKPEDTAVYYFAAQYYYPDDKGGYDYWGQGTQVTVSS | low polyreactivity
39 | QVQLVESGGGLVQAGGSLRLSCAASGFTLDYYAMGWYRKAPGKERELVAAISFSGGSTYYADSVKGRFTISRDNAKNTVYLQMNSLKPEDTAVYFCAADPQIVWYDYWGQGTQVTVSS | low polyreactivity
40 | QVQLVESGGGLVQAGGSLRLSCAASGFTLFFHAMGWYRQAPGKERELVATISERGDSTYYADSVKGRFTISRDNAKNTVYLQMNSLKPEDTAVYYCAAVGTYSSYGYWGQGTQVTVSS | high polyreactivity
41 | QVQLVESGGGLVQAGGSLRLSCAASGFTLGPYMGWYRQAPGKERELVAAISGGGGRTYYADSVKGRFTISRDNAKNTVYLQMNSLKPEDTSVYYCAAAYRSYKQFYSYGYEYWGQGTQVTVSS | high polyreactivity
42 | QVQLVESGGGLVQAGGSLRLSCAASGFTLIDYAMGWYRQAPGKERELVAAISGSGGRTYYADSVKGRFTISRDNAKNTVYLQMNSLKPEDTAVYYCAAGRRHVYKRRRYDYCGQGTQVTVSS | high polyreactivity
43 | QVQLVESGGGLVQAGGSLRLSCAASGFTLKYNTMGWYRQAPGKERELVAAITSSGVSTYYSDSVKGRFTISRDNAKNTVYLQMNSLKPEDTAVYYCNARERYSYWGQGTQVTVSS | high polyreactivity
